Among the data in PMC9519043 are Kd and binding signal values, retold here.

Series [1] concerns the target SARS-CoV-2 B.1.1.7 (S protein) (SARS-CoV-2 variant B.1.1.7) (UniProt P0DTC2). Kind of series: SPR. The settings on record: SPR (BIAcore T200, […], pH not stated. (In general: SPR reads the build-up and loss of mass on a sensor chip optically.)
Series [2] concerns the target SARS-CoV-2 B.1.351 (S protein) (SARS-CoV-2 variant B.1.351) (UniProt P0DTC2). Kind of series: SPR. The settings on record: SPR (BIAcore T200, […], pH not stated.
The target in series [3] is SARS-CoV-2 B.1.1.7 (S protein) (SARS-CoV-2 variant B.1.1.7) (UniProt P0DTC2). Description: microfluidic affinity capture, RT-qPCR. The settings on record: 5' amino C12 linker and TEG spacer 9; 3' inverted dT; SPR (BIAcore T200, […], pH not stated; […].

For orientation: Kd means the concentration at which binding is half-saturated. Consider “CAGCACCGACCTTGTGCTTTGGGAGTGCTGGTCCAAGGGCGTTAATGGACA [51-nt SARS-CoV-2 aptamer (Song et al.), SPR form]”, for which the Kd in series [1] and in series [2] was 1000 nM in each case.
For the sequence “CAGCACCGACCTTGTGCTTTGGGAGTGCTGGTCCAAGGGCGTTAATGGACA [51-nt SARS-CoV-2 aptamer, chip form]”, in series [3], the binding signal turned out to be 35 % recovery.
